Experimental data reported in publication PMC7948974, “Heme oxygenase-1 affects cytochrome P450 function through the formation of heteromeric complexes: Interactions between CYP1A2 and heme oxygenase-1” (The Journal of Biological Chemistry, 2020).

Target: T1, GFP-HO-1 (heme oxygenase 1 with an N-terminal GFP2 tag) (human, UniProt P09601 1-288)
T1 sequence (looked up): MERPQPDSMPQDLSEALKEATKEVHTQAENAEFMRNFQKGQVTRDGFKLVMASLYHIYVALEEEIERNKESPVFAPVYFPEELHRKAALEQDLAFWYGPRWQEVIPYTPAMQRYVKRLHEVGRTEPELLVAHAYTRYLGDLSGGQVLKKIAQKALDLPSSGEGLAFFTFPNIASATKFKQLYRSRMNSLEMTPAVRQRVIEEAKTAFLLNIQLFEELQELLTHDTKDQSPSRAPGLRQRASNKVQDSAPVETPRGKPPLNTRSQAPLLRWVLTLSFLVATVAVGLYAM
Assay: cell-based or functional assay

apparent Km^POR•HO-1 from HO-1-mediated heme degradation against POR concentration 0.025-0.5 μM; purified recombinant HO-1 (0.1 μM) and POR in DLPC, in the presence of 0.1 μM CYP1A2: 0.024 µM
B1: POR-Rluc (NADPH-cytochrome P450 reductase with a C-terminal Rluc tag) (enzyme, human, UniProt P16435 1-677, looked up)
chain: MGDSHVDTSSTVSEAVAEEVSLFSMTDMILFSLIVGLLTYWFLFRKKKEEVPEFTKIQTLTSSVRESSFVEKMKKTGRNIIVFYGSQTGTAEEFANRLSKDAHRYGMRGMSADPEEYDLADLSSLPEIDNALVVFCMATYGEGDPTDNAQDFYDWLQETDVDLSGVKFAVFGLGNKTYEHFNAMGKYVDKRLEQLGAQRIFELGLGDDDGNLEEDFITWREQFWPAVCEHFGVEATGEESSIRQYELVVHTDIDAAKVYMGEMGRLKSYENQKPPFDAKNPFLAAVTTNRKLNQGTERHLMHLELDISDSKIRYESGDHVAVYPANDSALVNQLGKILGADLDVVMSLNNLDEESNKKHPFPCPTSYRTALTYYLDITNPPRTNVLYELAQYASEPSEQELLRKMASSSGEGKELYLSWVVEARRHILAILQDCPSLRPPIDHLCELLPRLQARYYSIASSSKVHPNSVHICAVVVEYETKAGRINKGVATNWLRAKEPAGENGGRALVPMFVRKSQFRLPFKATTPVIMVGPGTGVAPFIGFIQERAWLRQQGKEVGETLLYYGCRRSDEDYLYREELAQFHRDGALTQLNVAFSREQSHKVYVQHLLKQDREHLWKLIEGGAHIYVCGDARNMARDVQNTFYDIVAELGAMEHAQAVDYIKKLMTKGRYSLDVWS
